Data as given in patent US20160264960A1 (Chugai, published 2016).
Blank lines part the entries; values can stand above or below the binder they belong to.

How the values were obtained:
[1] = biological target: T1, human plexin A1 protein sema domain (from glutamic acid at position 28 to serine at position 514) tagged at … (human, UniProt Q9UIW2 28-514); experiment: SPR, Biacore T200; antibody held by Protein A/G on CM4 chip, sema domain as analyte
T1 construct: also called human plexin A1 sema domain
T1 sequence: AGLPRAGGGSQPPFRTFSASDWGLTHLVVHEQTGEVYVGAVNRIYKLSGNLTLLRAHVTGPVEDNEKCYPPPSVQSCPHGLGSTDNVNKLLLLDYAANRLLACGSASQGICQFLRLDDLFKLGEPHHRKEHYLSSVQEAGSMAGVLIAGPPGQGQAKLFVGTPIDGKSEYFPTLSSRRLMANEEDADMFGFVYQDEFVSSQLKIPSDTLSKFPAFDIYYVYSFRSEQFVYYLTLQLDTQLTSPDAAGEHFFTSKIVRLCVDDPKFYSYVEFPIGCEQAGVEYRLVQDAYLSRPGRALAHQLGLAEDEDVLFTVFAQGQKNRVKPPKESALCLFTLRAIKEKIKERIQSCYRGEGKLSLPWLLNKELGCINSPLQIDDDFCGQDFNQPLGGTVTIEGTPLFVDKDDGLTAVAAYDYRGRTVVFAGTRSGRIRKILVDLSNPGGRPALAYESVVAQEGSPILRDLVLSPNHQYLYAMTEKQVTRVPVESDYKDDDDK
Method: (§1) Each antibody obtained in the paragraph (10-1) was evaluated for its binding activity against the antigen by surface plasmon resonance (SPR) analysis.
(§2) In the SPR analysis, the antibody was analyzed using Biacore T200 (GE Healthcare Japan Corp.). The anti-human plexin A1 antibody was immobilized onto the surface of Sensor Chip CM4 using Recombinant Protein A/G (Thermo Fisher Scientific Inc.) and Amine Coupling Kit (GE Healthcare Japan Corp.). The antigen used was a human plexin A1 protein sema domain (from glutamic acid at position 28 to serine at position 514) tagged at the C terminus of the protein with FLAG tag. The antigen was prepared as follows: an expression vector carrying a cDNA corresponding to the human plexin A1 sema domain was transferred to FreeStyle 293 cells. After culture, the obtained culture solution was passed through an anti-FLAG-M2 antibody-immobilized affinity column. A fraction eluted with the FALG peptide was purified by gel filtration. The obtained antigen was serially diluted with 20 mM ACES, 150 mM NaCl, 0.05% polysorbate 20, and 1.2 mM CaCl₂ (pH 7.4) and added to the sensor chip at a flow rate of 30 μL/min. In this assay system, the dissociation constant (KD) between the human plexin A1 protein and the anti-human plexin A1 antibody was calculated using data analysis software (BIA T200 Evaluation software ver. 2).

[2] = biological target: T1, human plexin A1 protein sema domain …; experiment: SPR, Biacore T200; KD against parent antibody hPANLB2-3_342
Method: as §1, §2

[3] = biological target: T2, mouse IgA (mouse, UniProt P01878 114-344); experiment: biolayer interferometry (Octet RED384), antibody on Protein G biosensor, mouse IgA in solution; antigen concentration not given [c]
T2 sequence (looked up): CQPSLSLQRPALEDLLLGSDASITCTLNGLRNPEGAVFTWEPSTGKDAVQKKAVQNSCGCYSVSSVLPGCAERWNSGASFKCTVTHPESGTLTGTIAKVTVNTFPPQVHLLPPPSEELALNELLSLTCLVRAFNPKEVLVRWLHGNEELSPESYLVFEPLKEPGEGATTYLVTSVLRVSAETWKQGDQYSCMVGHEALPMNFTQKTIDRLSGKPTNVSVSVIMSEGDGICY
Method: (§3) Each antibody (mIANH-2_27 and mIANH-3_79) obtained in the paragraph (4-1) or a PF1 antibody was evaluated for its binding activity against mouse IgA or soluble human IL-6R using Octet RED384 (forteBIO). The binding evaluation was conducted using HBS-EP+Buffer (GE Healthcare Japan Corp.) as a buffer.
(§4) After binding of the antibody to Protein G Biosensors (forteBIO), mouse IgA or soluble human IL-6R was allowed to interact with the antibody on the biosensor through contact therebetween for 120 seconds, and subsequently contacted with the buffer for 120 seconds to measure the antibody-antigen interaction. Then, the biosensor was regenerated through contact with 10 mmol/L glycine-HCl (pH 1.5). The measurement was conducted at 30° C.

[4] = biological target: T3, soluble human IL-6R (human, UniProt P08887 20-357); experiment: biolayer interferometry (Octet RED384), antibody on Protein G biosensor, soluble human IL-6R in solution, 120 s association and 120 s dissociation [d]
T3 construct: Analyte in the Octet experiments; also called hIL-6R; soluble hIL-6R
T3 sequence: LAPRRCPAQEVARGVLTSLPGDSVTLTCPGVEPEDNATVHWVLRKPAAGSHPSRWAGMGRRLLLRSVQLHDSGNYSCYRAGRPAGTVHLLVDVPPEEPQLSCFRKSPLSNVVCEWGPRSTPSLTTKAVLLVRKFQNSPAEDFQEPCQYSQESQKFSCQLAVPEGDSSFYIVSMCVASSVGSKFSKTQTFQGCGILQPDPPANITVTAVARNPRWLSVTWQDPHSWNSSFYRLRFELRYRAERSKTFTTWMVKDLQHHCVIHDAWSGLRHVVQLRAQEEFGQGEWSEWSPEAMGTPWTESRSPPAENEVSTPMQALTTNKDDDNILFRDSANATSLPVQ
Method: (§5) Each antibody (PANH-2_52, PANH-2_68, and PANH-3_10) obtained in the paragraph (4-1) or an anti-human IL-6R antibody PF1 antibody was evaluated for its binding activity against soluble human plexin A1 and soluble human IL-6R using Octet RED384 (forteBIO). The binding evaluation was conducted using HBS-EP+Buffer (GE Healthcare Japan Corp.) as a buffer.
as §4, with “soluble human plexin A1” for “mouse IgA”

[5] = biological target: T4, soluble human plexin A1 (human, UniProt Q9UIW2 27-1244); experiment: biolayer interferometry (Octet RED384), antibody on Protein G biosensor, soluble human plexin A1 in solution; antigen concentration not given [d]
T4 construct: also called hPlexin A1; human Plexin A1 extracellular region
Method: as §5
as §4, with “soluble human plexin A1” for “mouse IgA”

[6] = biological target: T4, soluble human plexin A1; experiment: biolayer interferometry (Octet RED384), antibody on Protein G biosensor, soluble human plexin A1 in solution, 120 s association and 120 s dissociation [b]
Method: as §5
as §4, with “soluble human plexin A1” for “mouse IgA”

[7] = biological target: T3, soluble human IL-6R; experiment: biolayer interferometry (Octet RED384), antibody on Protein G biosensor, soluble human IL-6R in solution; antigen concentration not given [b]
Method: as §5
as §4, with “soluble human plexin A1” for “mouse IgA”

[8] = biological target: T3, soluble human IL-6R; experiment: biolayer interferometry (Octet RED384), antibody on Protein G biosensor, soluble human IL-6R in solution; antigen concentration not given [a]
Method: as §5
as §4, with “soluble human plexin A1” for “mouse IgA”

[9] = biological target: T4, soluble human plexin A1; experiment: biolayer interferometry (Octet RED384), antibody on Protein G biosensor, soluble human plexin A1 in solution, 120 s association and 120 s dissociation [a]
Method: as §5
as §4, with “soluble human plexin A1” for “mouse IgA”

[10] = biological target: T3, soluble human IL-6R; experiment: biolayer interferometry (Octet RED384), antibody on Protein G biosensor, soluble human IL-6R in solution; antigen concentration not given [b]; remark: listed apart in the source
Method: as §3, §4

[11] = biological target: T3, soluble human IL-6R; experiment: biolayer interferometry (Octet RED384), antibody on Protein G biosensor, soluble human IL-6R in solution; antigen concentration not given [c]
Method: as §5
as §4, with “soluble human plexin A1” for “mouse IgA”

[12] = biological target: T4, soluble human plexin A1; experiment: biolayer interferometry (Octet RED384), antibody on Protein G biosensor, soluble human plexin A1 in solution, 120 s association and 120 s dissociation [c]
Method: as §5
as §4, with “soluble human plexin A1” for “mouse IgA”

[13] = biological target: T3, soluble human IL-6R; experiment: biolayer interferometry (Octet RED384), antibody on Protein G biosensor, soluble human IL-6R in solution; antigen concentration not given [a]; remark: listed apart in the source
Method: as §3, §4

T4 sequence (Q9UIW2 other isoform, or with tags, fused parts or gaps): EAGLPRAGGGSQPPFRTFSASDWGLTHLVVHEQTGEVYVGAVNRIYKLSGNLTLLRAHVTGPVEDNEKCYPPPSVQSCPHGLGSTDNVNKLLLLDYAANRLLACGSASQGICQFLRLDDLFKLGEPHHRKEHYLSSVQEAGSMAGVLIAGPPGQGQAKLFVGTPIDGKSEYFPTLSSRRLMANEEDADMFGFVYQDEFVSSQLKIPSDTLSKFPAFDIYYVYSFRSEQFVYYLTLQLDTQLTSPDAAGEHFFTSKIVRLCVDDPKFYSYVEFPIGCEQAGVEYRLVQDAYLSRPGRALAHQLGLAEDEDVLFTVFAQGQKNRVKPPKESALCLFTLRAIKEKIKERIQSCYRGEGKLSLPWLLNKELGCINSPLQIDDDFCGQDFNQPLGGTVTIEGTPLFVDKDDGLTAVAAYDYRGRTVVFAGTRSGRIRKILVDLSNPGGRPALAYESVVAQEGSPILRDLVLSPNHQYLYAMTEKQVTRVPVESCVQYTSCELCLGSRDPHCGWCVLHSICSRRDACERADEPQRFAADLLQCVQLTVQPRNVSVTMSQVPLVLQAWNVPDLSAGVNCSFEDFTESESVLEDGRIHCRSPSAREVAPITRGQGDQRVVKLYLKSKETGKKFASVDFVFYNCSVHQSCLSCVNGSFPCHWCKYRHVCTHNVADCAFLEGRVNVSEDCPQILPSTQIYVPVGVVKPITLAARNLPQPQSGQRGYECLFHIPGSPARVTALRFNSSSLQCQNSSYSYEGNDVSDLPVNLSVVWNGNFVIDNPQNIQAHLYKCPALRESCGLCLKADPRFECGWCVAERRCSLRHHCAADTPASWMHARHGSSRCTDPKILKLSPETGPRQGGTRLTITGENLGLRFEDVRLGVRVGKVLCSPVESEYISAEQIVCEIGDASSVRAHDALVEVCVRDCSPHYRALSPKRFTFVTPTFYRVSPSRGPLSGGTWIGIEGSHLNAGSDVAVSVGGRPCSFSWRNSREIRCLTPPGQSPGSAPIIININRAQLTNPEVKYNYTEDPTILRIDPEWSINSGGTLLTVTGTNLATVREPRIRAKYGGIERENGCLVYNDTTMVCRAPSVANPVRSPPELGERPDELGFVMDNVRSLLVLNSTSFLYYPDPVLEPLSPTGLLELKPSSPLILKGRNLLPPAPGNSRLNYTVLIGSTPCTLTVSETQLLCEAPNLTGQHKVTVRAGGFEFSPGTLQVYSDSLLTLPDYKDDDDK

B1: PLR2H342#009 (antibody, human IgG1, lambda, V domains shown)
VH: EVQLVQSGAEVKKPGASVKVSCKASGYTFTSYGISWVRQAPGQGLEWMGWISAYNGNTNYAQKLQGRVTMTTDTSTSTAYMELRSLRSDDTAVYYCARHAGYYYGMDVWGKGTMVTVSS
VL: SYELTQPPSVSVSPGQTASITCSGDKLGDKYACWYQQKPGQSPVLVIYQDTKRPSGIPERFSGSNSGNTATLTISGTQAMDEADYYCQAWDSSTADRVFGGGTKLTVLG
notes: IgG from the 342H-NL library
Kd [1]: 1.82 nM
Relative KD improvement [2]: 19 fold

B2: PF1 (antibody, human IgG1, kappa, V domains shown)
VH: QVQLQESGPGLVKPSETLSLTCAVSGYSISDDHAWSWVRQPPGEGLEWIGYISYSGITNYNPSLKGRVTISRDTSKNQFSLKLSSVTAADTAAYYCARVLARITAMDYWGEGTLVTVSS
VL: DIQMTQSPSSLSASVGDSVTITCQASQDISSYLNWYQQKPGKAPELLIYYGSELHSGVPSRFSGSGSGTDFTFTISSLEAEDAATYYCGQGNRLPYTFGQGTKVEIER
notes: also called PF1 antibody; anti-IL-6R antibody PF1 antibody
binding result [3]: no binding
binding result [4]: binds
binding result [5]: no binding

B3: PANH-2_68 (antibody, human IgG1, kappa, V domains shown)
VH: QVQLVQSGAEVKKPGASVKVSCKASGYTFTSYGISWVRQAPGQGLEWMGWISAYNGNTNYAQKLQGRVTMTTDTSTSTAYMELRSLRSDDTAVYYCARAHTKDIWGQGTMVTVSS
VL: B2 VL
notes: IgG with the PF1 L chain
binding result [6]: binds
binding result [7]: no binding

B4: PANH-2_52 (antibody, human IgG1, kappa, V domains shown)
VH: EVQLVQSGGGVVQPGRSLRLSCAASGFTFSSYAMHWVRQAPGKGLEWVAVISYDGSNKYYADSVKGRFTISRDNSKNTLYLQMNSLRAEDTAVYYCARPPMEWLFWDAFDIWGQGTMVTVSS
VL: B2 VL
notes: IgG with the PF1 L chain
binding result [8]: no binding
binding result [9]: binds

B5: mIANH-3_79 (antibody, human IgG1, kappa, V domains shown)
VH: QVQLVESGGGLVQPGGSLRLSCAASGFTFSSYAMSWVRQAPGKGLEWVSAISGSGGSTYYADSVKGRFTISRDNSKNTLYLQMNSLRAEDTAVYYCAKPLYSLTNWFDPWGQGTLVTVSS
VL: B2 VL
notes: IgG with the PF1 L chain
binding result [10]: no binding

The remaining lines, values ahead:

binding result [11]: no binding
binding result [12]: binds
B6: PANH-3_10 (antibody, human IgG1, kappa, V domains shown)
VH: QVQLQESGPGLVKPSETLSLTCTVSGGSISSSSYYWGWIRQPPGKGLEWIGSIYYSGSTYYNPSLKSRVTISVDTSKNQFSLKLSSVTAADTAVYYCARDPVQLEHSRYYYYYGMDVWGQGTTVTVSS
VL: B2 VL
notes: IgG with the PF1 L chain

binding result [13]: no binding
B7: mIANH-2_27 (antibody, human IgG1, kappa, V domains shown)
VH: EVQLVQSGAEVKKPGASVKVSCKASGYTFTGYYIHWVRQAPGQGLEWMGRINPNSGGTNYAQKFQGRVTMTRDTSISTAYMQLSRLRSDDTAVYYCARDNSGWGGFDAFDIWGQGTMVTVSS
VL: B2 VL
notes: IgG with the PF1 L chain
